Patent publication US20240052037A1 (BEIJING HANMI PHARMACEUTICAL, published 2024)

Target: T1, CD47 on cells (HCC827 tumor cells; red blood cells from healthy people) (human, UniProt Q08722 19-323)
T1 construct: whole, on cells; Endogenous CD47 on human cells
Experiment: flow cytometry on mixed HCC827 cells and red blood cells
Protocol: HCC827 tumor cells express PD-L1 and CD47, but red blood cells (RBCs) express only CD47. HCC827 cells and RBCs were mixed together, and flow cytometry (FCM) was used to detect whether the heterodimer was selective for the binding to the two cells in the mixed cells.
The specific implementation process of this method is as follows. […] Flow tubes were incubated on ice for 30 minutes. The cells were washed twice with PBS containing 2% FBS. Then the pellets were resuspended in 200 μL of cold PBS containing 2% FBS and FITC-labeled anti-human IgG antibody diluted 1:1000 (Beijing Zhongshan Golden Bridge, Catalog number ZF0306), incubated on ice for 30 minutes in the dark. The cells were washed twice with PBS containing 2% FBS, then resuspended in 500 μL of cold PBS. The cell suspension obtained was detected and analyzed on a flow cytometer (BD, FACS Calibur), and the respective fluorescence intensities of the two cells in the mixed cells were read.

T1 sequence (Q08722 19-323): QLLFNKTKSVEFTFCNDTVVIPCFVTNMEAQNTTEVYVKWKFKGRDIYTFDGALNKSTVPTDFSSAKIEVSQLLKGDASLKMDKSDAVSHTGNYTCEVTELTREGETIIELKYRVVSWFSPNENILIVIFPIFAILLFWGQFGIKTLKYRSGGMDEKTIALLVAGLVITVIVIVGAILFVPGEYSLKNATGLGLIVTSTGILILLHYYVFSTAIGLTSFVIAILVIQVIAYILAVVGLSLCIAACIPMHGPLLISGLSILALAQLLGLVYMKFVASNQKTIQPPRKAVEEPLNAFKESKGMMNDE

binding result: binds
B1: CD47 monoclonal antibody (heavy and light chain variable region sequences of the humanized sequences z11 of the antibody CD47-18-5 and the constant region … (antibody, V domains shown)
VH: QVQLVQSGAEVKKPGSSVKVSCKASGFNIEDIYMHWVRQAPGQGLEWMGRIDPANDNTKYGPKLQGRVTITADTSTNTAYMELSSLRSEDTAVYYCVRRIPTDIMDYWGQGTTVTVSS
VL: DIQMTQSPSSLSASVGDRVTITCKASQNVRTSIAWYQQKPGKAPKTLIYLASNRHTGVPSRFSGSGSGTEFTLTISNLQPEDFATYYCLQHWNYPFTFGQGTKLEIK
notes: also called anti-CD47 monoclonal antibody
